Here are results for nine molecules from patent US20080050375A1 (Eli Lilly, published 2008).

Assay [1] concerns the target human TGF-beta 1 (R&D Systems, Cat # 240-B/CF) (human) (UniProt P01137). In words: calculated from KinExA Kd and kon.
For assay [2] the target is unchanged. Put plainly: KinExA 3000, equilibrium, Fab in solution.
The target is the same in assay [3]. Put plainly: KinExA 3000, Fab in solution, antigen on beads.
The target of assay [4] is T1, human TGF-beta 1 (R&D Systems, Cat # 240-B/CF) (human, UniProt P01137 279-390).
T1 construct: They match K95 and residues 58-61 of mature numbering; also called TGF-β1; mature TGF-β1
In words: calculated from KinExA Kd and kon. The procedure:
(§1) A KinExA 3000 instrument (Sapidyne Inst. Inc.) is used to measure binding kinetics. Briefly, an antigen is covalently coupled to alzactone beads and the binding of a free Fab binding composition of the invention to the beads is detected on the instrument. […] After the incubation, free Fab in each equilibrated sample is determined on the KinExA 3000 according to the manufacturer's instructions. Kd values are determined using KinExA 3000 software.
(§2) To measure kₒₙ, individual Fabs at 2 nM are mixed with 0-240 nM of antigen using the injection method according to the manufacturer's instructions, and the unbound Fab is detected. The resulting data is used to calculate the kₒₙ with KinExA 3000 software. The koff is calculated by using the formula Kd=koff/kₒₙ.

The target of assay [5] is T1, human TGF-beta 1 (R&D Systems, Cat # …). In words: KinExA 3000, equilibrium, Fab in solution. The procedure: as §1
The target is the same in assay [6]. Put plainly: KinExA 3000, Fab in solution, antigen on beads. The procedure:
as §1, §2

Assay [7] deals with T2, human TGF-beta 3 (RDI, Cat # RDI-1036/CF) (human, UniProt P10600 301-412).
T2 construct: Bought recombinant protein; also called TGF-β3; TGF-p3
T2 sequence (looked up): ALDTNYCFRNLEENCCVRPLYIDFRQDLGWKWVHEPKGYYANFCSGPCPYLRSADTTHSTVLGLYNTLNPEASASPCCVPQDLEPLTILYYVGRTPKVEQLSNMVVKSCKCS
In words: Biacore SPR, equilibrium fit, mAb captured on Protein A, TGF-β3 injected. The procedure:
(§3) Affinities of binding composition mAbs for TGF-p3 are determined using BIAcore methods. All measurements are performed at room temperature. Samples are dissolved in HBS-EP buffer (150 mM sodium chloride, 3 mM EDTA, 0.01% (w/v) surfactant P-20, and 10 mM HEPES, pH7.4). Recombinant Protein A is immobilized on four flow cells of a CM4 sensor chip at a level of 400-450 response units (RUs) using an amine coupling kit. Binding is evaluated over multiple analytical cycles. Each cycle is performed at a flow rate of 100 μL/minute consisting of the following steps: injection of 15 μL of an antibody binding composition at 0.5 μg/mL, injection of 250 μL of TGF-β3 (starting at 5 nM and using two-fold serial dilutions to 0.13 nM for each cycle, with two injections for each concentration) followed by a short (5 minutes) delay for dissociation, and regeneration using two injections of 50VL of 10 mM glycine hydrochloride, pH1.5.
(§4) Affinities are determined based upon the equilibrium signal as reached at varying TGF-β3 concentrations by measuring the average signal during the last 10 seconds of the TGF-β3 injections, and then fitting the resulting signals at all of the TGF-β3 concentrations to a simple binding equilibrium model in SCRUBBER (Center for Biomolecular Interaction Analysis, Univ. of Utah). Model data determined for tested human mab composition of the invention of Kd and specificity calculated by dividing the Kd for TGF-β3 binding by the Kd for TGF-β1 binding (herein) is shown below in Table 5.

In assay [8] the target is T2, human TGF-beta 3 (RDI, Cat # …). In words: ratio of Biacore Kd for TGF-β3 to Kd for TGF-β1. The procedure: as §3, §4
Assay [9] deals with T1, human TGF-beta 1 (R&D Systems, Cat # …). Put plainly: cell-based or functional assay.
Assay [10] has as its target T2, human TGF-beta 3 (RDI, Cat # …). Put plainly: Biacore SPR, mAb captured on Protein A, 5 nM ligand injected; stoichiometry from captured signals. The procedure: (§5) BIAcore methods are used to determine the ability of invention mAb compositions to bind other entities, specifically the latent form of TGF-beta 1 or TGF-beta 3. All measurements are performed at room temperature. Samples are dissolved in HBS-EP buffer (150 mM sodium chloride, 3 mM EDTA, 0.01% (w/v) surfactant P-20, and 10 mM HEPES, pH7.4). Recombinant Protein A is immobilized on all four flow cells of a CM4 sensor chip at a level of 400-450 response units (RUs) using an amine coupling kit.
(§6) Binding is evaluated using multiple analytical cycles. Each cycle is performed at a flow rate of 100 μL/minute consisting of the following steps: injection of 15 μL of an antibody binding composition at 1 μg/mL, injection of 250 μL of either 5 nM TGF-beta 1, 5 nM latent TGF-beta 1, or 5 nM TGF-beta 3 followed by a short delay (5 min) for dissociation, and regeneration using two injections of 50 μL of 10 mM glycine hydrochloride, pH1.5. The amount of signal after capturing first the Mab, and then the ligand, are determined using the instrument control software. Since the signal is proportional to the mass of protein captured, the stoichiometry of the captured ligand is readily calculable (Table 4).

The target in another assay is T3, latent TGF-beta 1 (UniProt P01137 30-390, limits assumed).
T3 construct: Latent complex (pro-peptide with mature TGF-beta 1); also called Latent TGF-β1; latent form of TGF-beta 1
T3 sequence (P01137 30-390 limits assumed): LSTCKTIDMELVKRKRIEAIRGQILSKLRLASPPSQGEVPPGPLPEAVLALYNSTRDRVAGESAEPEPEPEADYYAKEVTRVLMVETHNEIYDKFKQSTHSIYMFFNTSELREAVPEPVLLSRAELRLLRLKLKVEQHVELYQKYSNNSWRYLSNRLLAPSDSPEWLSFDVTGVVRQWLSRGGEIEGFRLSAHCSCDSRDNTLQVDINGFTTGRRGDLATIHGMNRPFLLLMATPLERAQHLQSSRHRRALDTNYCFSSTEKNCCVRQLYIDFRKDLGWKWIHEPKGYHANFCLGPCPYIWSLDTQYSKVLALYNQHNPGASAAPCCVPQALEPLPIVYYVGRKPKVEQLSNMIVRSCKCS
The assay is described as above. The procedure: as §5, §6

Assay [11] has as its target T1, human TGF-beta 1 (R&D Systems, Cat # …). The description is as above. The procedure: as §5, §6
Assay [12] shares this target. Put plainly: Biacore SPR, mAb captured on Protein A, TGF-beta 1 injected. The procedure:
(§7) Alternate methods of measuring kinetic constants are known, for example: affinity of a binding composition for human TGF-beta 1 (R&D Systems, Cat #240-B/CF), TGF-beta 2 (RDI, Cat # RDI-1035) and TGF-beta 3 (RDI, Cat # RDI-1036/CF) is measured using a BlAcore® 2000 instrument. The BIAcore® utilizes the optical properties of surface plasmon resonance to detect alteration in protein concentration of interacting molecules within a dextran biosensor matrix. Except as noted, all reagents and materials are purchased from BIAcore® AB (Upsala, Sweden). All measurements are performed at room temperature. Samples are dissolved in HBS-EP buffer (150 mM sodium chloride, 3 mM EDTA, 0.01% (w/v) surfactant P-20, and 10 mM HEPES, pH7.4). Recombinant Protein A is immobilized on all four flow cells of a CM4 sensor chip at a level of 400-450 response units (RUs) using an amine coupling kit.
(§8) Binding is evaluated using multiple analytical cycles. Each cycle is performed at a flow rate of 50 μL/minute and consists of the following steps: injection of 12 μL of an antibody binding composition at 0.5 μg/mL, injection of 250 μL of TGF-beta 1 (starting at 5 nM and using two-fold serial dilutions to 0.13 nM for each cycle, with two injections for each concentration) followed by either a short (5 minutes) or long (120 minutes) delay for dissociation, and regeneration using two injections of 50VL of 10 mM glycine hydrochloride, pH1.5. Association and dissociation rates for each cycle are determined by fitting of the biosensor data using to a simple association model using ClampXP (Center for Biomolecular Interaction Analysis, Univ. of Utah) to extract the kₒₙ and koff rate constants; the equilibrium binding constant Kd is calculated using the relationship Kd=koff/kₒₙ. Model data for invention compositions are in Table 3 shown below.

The target is the same in assay [13]. In words: Biacore SPR, calculated koff/kon. The procedure: as §7, §8

Positions count from the first letter of the chain named. Some results are limits rather than exact numbers.

B1: Fab C27 (Fab, V domains shown)
VH: QVQLVQSGAEVKKPGASVKVSCKASGYTFTDYNIHWVRQAPGQGLEWMGYIYPYDGETGYNQKFKSRVTMTTDTSTSTAYMELRSLRSDDTAVYYCARGYRAFEYWGQGTLVTVSS
VL: DIQMTQSPSSLSASVGDRVTITCRASSSVPYMHWYQQKPEKAPKSLIYATSNLAFGVPSRFSGSGSGTDFTLTISSLQPEDFATYYCQQWDLNPPAFGQGTKLEIK
As to B1, the koff in assay [1] was 1.7e-05 s⁻¹. In assay [2], the dissociation constant (Kd) stood at 4.2 pM. In assay [3], this molecule came in with a kon of 4.1e+06 M⁻¹ s⁻¹.

B2: Fab DM4 (Fab, V domains shown)
VH: B1 VH with T28D, A102W, F103L, E104A
VL: B1 VL with P30S, E40G, S45P, F55Y
notes: Fab with human constant regions (kappa light chain)
For B2, the dissociation rate constant (koff) in assay [4] was 5.1e-06 s⁻¹. In addition, the Kd in assay [5] turned out to be 1.2 pM. This molecule showed a kon in [6] of 4.2e+06 M⁻¹ s⁻¹.

B3: mAb 21D1 (antibody, human IgG4 S228P, kappa, V domains shown)
VH: B1 VH with A102W, E104A
VL: DIQMTQSPSSLSASVGDRVTITCRASSSVPYMHWFQQKPGKAPKSLIYATSNPAYGVPSRFSGSGSGTDFTLTISSLQPEDFATYYCQQWDLNPPAFGQGTKLEIKR
notes: Full-length IgG4 antibody; also called LA307-21D1
B3: the Kd in assay [7] was 4900 pM; in [13] it was less than 0.5 pM. Besides, the “Specificity (Kd, β3/Kd, β1)” value in assay [8] turned out to be 9800 fold. Further, the “Fold Improvement in IC50 relative to mAb2471 (HT-2 cell proliferation assay)” value in [9] is 107 fold. Besides, the entries for the “Stoichiometry of ligand binding” value (in [10]; in the assay with latent TGF-beta 1; in assay [11]) were 0.16, 0.05 and 1.29, respectively. Moreover, the koff in assay [12] was less than 6e-06 s⁻¹. Moreover, in [12], the kon was found to be 1.3e+07 M⁻¹ s⁻¹.

B4: mAb DM7 (antibody, IgG4, V domains shown)
VH: B1 VH with T28D, I34M, A102W, F103L, E104Y
VL: B1 VL with P30S, E40G, S45P, F55K
For B4, the Kd in [7] is 1160 pM; in assay [13], less than 0.5 pM. Also, the “Specificity (Kd, β3/Kd, β1)” value in assay [8] amounted to 2320 fold. For the same molecule, the “Fold Improvement in IC50 relative to mAb2471 (HT-2 cell proliferation assay)” value in [9] was determined as 140 fold. In addition, the “Stoichiometry of ligand binding” value in assay [10] was found to be 0.54; with latent TGF-beta 1, 0.04; in assay [11] it was 1.23. In assay [12], this molecule returned a koff of less than 7e-06 s⁻¹. Further, the kon in [12] came to 1.3e+07 M⁻¹ s⁻¹.

B5: Fab 21D1 (Fab, V domains shown)
VH: B1 VH with A102W, E104A
VL: B1 VL with Y35F, E40G, L53P, F55Y
notes: Fab with human constant regions (kappa light chain) from M13 expression vectors
Turning to B5, in assay [4], the koff was 3.4e-06 s⁻¹. In addition, the affinity in [5], expressed as Kd, was 0.9 pM. In assay [6], this molecule returned a kon of 4e+06 M⁻¹ s⁻¹.

B6: Fab DM7 (Fab, V domains shown)
VH: B1 VH with T28D, I34M, A102W, F103L, E104Y
VL: B1 VL with P30S, E40G, S45P, F55K
notes: as for B2
Regarding B6, in [4], the koff is 2.3e-06 s⁻¹. The molecule also displayed a Kd in assay [5] of 0.5 pM. In assay [6], this molecule came in with a kon of 4.5e+06 M⁻¹ s⁻¹.

B7: mAb 23A3 (antibody, IgG4, V domains shown)
VH: B1 VH with T28D, I34M, H35V, Y50S
VL: B1 VL with E40G, S45L, L53P, F55Y
For B7, the Kd in [7] was 660 pM; in assay [13], 0.8 pM. Besides, the “Specificity (Kd, β3/Kd, β1)” value in assay [8] stood at 1050 fold. Also, the “Fold Improvement in IC50 relative to mAb2471 (HT-2 cell proliferation assay)” value in assay [9] amounted to 234 fold. The “Stoichiometry of ligand binding” value in [10] was found to be 1.26; with latent TGF-beta 1, 0.07; in [11], 1.63. Besides, in assay [12], the koff came to 1e-05 s⁻¹. Further, the kon in assay [12] came to 1.9e+07 M⁻¹ s⁻¹.

B8: Fab 23A3 (Fab, V domains shown)
VH: B1 VH with T28D, I34M, H35V, Y50S
VL: B1 VL with E40G, S45L, L53P, F55Y
notes: as for B2
As to B8, the koff in [4] was 1.9e-05 s⁻¹. Moreover, in [5], the Kd amounted to 4 pM. In assay [6], this molecule registered a kon of 4.8e+06 M⁻¹ s⁻¹.

B9: mAb DM4 (antibody, human IgG4 S228P, kappa, V domains shown)
VH: B1 VH with T28D, A102W, F103L, E104A
VL: B3 VL with P30S, F35Y, S45P, P53L
notes: Full-length IgG4 antibody; also called LA307-DM4
For the molecule B9, the figures for the dissociation constant Kd in assay [7] and in assay [13] were 530 pM and 0.9 pM, respectively. Besides, the “Specificity (Kd, β3/Kd, β1)” value in [8] is 621 fold. The “Fold Improvement in IC50 relative to mAb2471 (HT-2 cell proliferation assay)” value in [9] turned out to be 391 fold. In addition, the “Stoichiometry of ligand binding” value was found to be 0.03 with latent TGF-beta 1 and 1.55 in assay [11]. In addition, the koff in [12] was 1.4e-05 s⁻¹. Also, the kon in assay [12] was 1.6e+07 M⁻¹ s⁻¹.
